Data on three molecules can be found in article PMC11775580.

Assay [1] has as its target pSer2 CTD peptide (RNA polymerase II CTD, about two heptads, phosphorylated at Ser2). Put plainly: fluorescence polarisation.
Assay [2] addresses pSer7 CTD peptide (RNA polymerase II CTD, about two heptads, phosphorylated at Ser7). The assay is described as follows: fluorescence polarisation. (In general: Fluorescence polarisation rises when a labelled molecule tumbles more slowly, as on binding a larger partner.)

B1: RPRD1B CID domain (residues 2-133), wild type (domain or fragment)
chain: SSFSESALEKKLSELSNSQQSVQTLSLWLIHHRKHAGPIVSVWHRELRKAKSNRKLTFLYLANDVIQNSKRKGPEFTREFESVLVDAFSHVAREADEGCKKPLERLLNIWQERSVYGGEFIQQLKLSMEDSK
For the molecule B1, the Kd in assay [1] was found to be 22.5 µM; in assay [2], 32.5 µM.

B2: RPRD1B CID domain (residues 2-133), Arg114A mutant (domain or fragment)
chain: SSFSESALEKKLSELSNSQQSVQTLSLWLIHHRKHAGPIVSVWHRELRKAKSNRKLTFLYLANDVIQNSKRKGPEFTREFESVLVDAFSHVAREADEGCKKPLERLLNIWQEASVYGGEFIQQLKLSMEDSK
B2 had an equilibrium dissociation constant (Kd) in assay [1] of 37.9 µM.

B3: RPRD1B CID domain (residues 2-133), Tyr61 to alanine (domain or fragment)
chain: SSFSESALEKKLSELSNSQQSVQTLSLWLIHHRKHAGPIVSVWHRELRKAKSNRKLTFLALANDVIQNSKRKGPEFTREFESVLVDAFSHVAREADEGCKKPLERLLNIWQERSVYGGEFIQQLKLSMEDSK
B3 had a Kd in assay [1] of 37.8 µM.

As a reminder, the Kd is a measure of binding affinity in units of concentration. Low values mean higher affinity, high ones lower affinity.
